Results published in the supplement of paper PMC6757056.
± gives the standard deviation of the averaged measurements.

B1: library; a variant is named by its letters at N, in order (parent)
chain: GCUGUCACCGGUGCUUGGUACGUUAUAUUCAGCCGGUCUGAUGAGUCUNNNNNNAGACGAAACAGC

Experiments:
(6R,S)-folinic acid [1] = variants of: B1; experiment: FACS-Seq fitted mean relative fluorescence mCherry/BFP without ligand (log10 relative fluorescence); HEK293T overexpressing SLC46A1; higher = higher reporter protein expression; settings: without (6R,S)-folinic acid; ligand present: no
Description: (§1)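 Hammerhead (sTRSV) ribozyme switch libraries with a ligand aptamer grafted on stem I and a randomized N4-6 loop II, cloned into the 3' UTR of mCherry and transiently transfected into HEK293T cells; RNA-Seq 72 h post transfection with ligand added 1 h before transfection; RNA read count / plasmid DNA read count normalized to the non-cleaving sTRSVctl (x100), log10; sequences with >100 DNA reads. FACS-Seq: lentiviral library sorted into 6 bins after 48 h ligand, log-normal fit mean of mCherry/BFP scaled to controls. Printed sequences are partial switch sequences.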

(6R,S)-folinic acid [2] = variants of: B1; experiment: normalized RNA/DNA level without ligand (relative to sTRSVctl = 100) (log10 (% of sTRSVctl)); HEK293T overexpressing SLC46A1; higher = less ribozyme self-cleavage, higher mRNA level; settings: without (6R,S)-folinic acid; ligand present: no
Description: as §1

(6R,S)-folinic acid [3] = variants of: B1; experiment: FACS-Seq fitted mean relative fluorescence mCherry/BFP with ligand (log10 relative fluorescence); HEK293T overexpressing SLC46A1; ligand concentration (+) FACS-Seq: 6 mM; higher = higher reporter protein expression; settings: with (6R,S)-folinic acid; ligand present: yes
Description: as §1

(6R,S)-folinic acid [4] = variants of: B1; experiment: normalized RNA/DNA level with ligand (relative to sTRSVctl = 100) (log10 (% of sTRSVctl)); HEK293T overexpressing SLC46A1; ligand concentration (+) RNA-Seq: 6 mM; higher = less ribozyme self-cleavage, higher mRNA level; settings: with (6R,S)-folinic acid; ligand present: yes
Description: as §1

Row | Variant | FACS-Seq fitted mean (log10) ((6R,S)-folinic acid [1]) | normalized RNA/DNA level without ligand (log10) ((6R,S)-folinic acid [2]) | FACS-Seq fitted mean (log10) ((6R,S)-folinic acid [3]) | normalized RNA/DNA level with ligand (log10) ((6R,S)-folinic acid [4])
1 | AAAUUC | 0.629 ± 0.14 | 2.03 ± 0.0039 | 0.471 ± 0.059 | 2.018 ± 0.016
2 | AAAUUU | 0.415 ± 0.0088 | 2.053 ± 0.0076 | 0.218 ± 0.093 | 2.05 ± 0.039
3 | AAAUUG | 0.0771 ± 0.044 | 1.921 ± 0.0078 | 0.102 ± 0.18 | 2.02 ± 0.061
4 | GAAAUG | 0.4312 ± 0.0042 | 1.954 ± 0.012 | 0.551 ± 0.067 | 2.03 ± 0.043
5 | GAAAUA | 0.624 ± 0.015 | 2.008 ± 0.007 | 0.26 ± 0.23 | 2.02 ± 0.038
6 | GAAGCA | 0.272 ± 0.031 | 1.967 ± 0.015 | 0.486 ± 0.021 | 2 ± 0.024
7 | GAAGCU | 0.0826 ± 0.071 | 2.018 ± 0.015 | 0.0358 ± 0.15 | 2.04 ± 0.022
8 | GAAGCG | 0.117 ± 0.13 | 1.929 ± 0.012 | 0.259 ± 0.065 | 2.02 ± 0.034
9 | GAAGGC | 0.492 ± 0.035 | 1.951 ± 0.006 | 0.635 ± 0.019 | 2.009 ± 0.0033
10 | CACACU | 0.136 ± 0.099 | 2.008 ± 0.011 | 0.187 ± 0.057 | 2.03 ± 0.011
11 | CACACA | 0.66 ± 0.12 | 1.97 ± 0.026 | 0.319 ± 0.036 | 1.98 ± 0.031
12 | CAAGCU | 0.363 ± 0.071 | 2.047 ± 0.0037 | 0.443 ± 0.099 | 2.05 ± 0.043
13 | CAAGCA | 0.195 ± 0.065 | 2.018 ± 0.012 | 0.434 ± 0.14 | 2.03 ± 0.032
14 | UAAAGG | 0.0807 ± 0.018 | 1.631 ± 0.0062 | 0.507 ± 0.13 | 1.94 ± 0.035
15 | UAAAGA | 0.265 ± 0.1 | 1.88 ± 0.019 | 0.312 ± 0.088 | 1.99 ± 0.029
16 | UAAAGC | 0.217 ± 0.12 | 1.973 ± 0.017 | 0.319 ± 0.15 | 2 ± 0.06
17 | UAAAGU | 0.553 ± 0.0074 | 1.886 ± 0.0062 | 0.894 ± 0.26 | 1.99 ± 0.045
18 | UACAGG | 0.254 ± 0.021 | 1.661 ± 0.0093 | 0.489 ± 0.051 | 1.96 ± 0.033
19 | UACAGU | 0.183 ± 0.13 | 1.92 ± 0.021 | 0.133 ± 0.26 | 1.994 ± 0.0074
20 | UACAGA | 0.358 ± 0.072 | 1.913 ± 0.011 | 0.548 ± 0.15 | 1.99 ± 0.037
21 | CAAUUC | -0.0653 ± 0.041 | 2.019 ± 0.012 | -0.136 ± 0.18 | 1.998 ± 0.016
22 | CAAUUA | 0.413 ± 0.065 | 1.963 ± 0.016 | 0.429 ± 0.07 | 1.989 ± 0.015
23 | GAACCU | -0.507 ± 0.14 | 2.02 ± 0.0076 | -0.0321 ± 0.22 | 2.02 ± 0.04
24 | CAACGA | 0.682 ± 0.03 | 2.008 ± 0.0085 | 0.653 ± 0.17 | 2.005 ± 0.018

Row | Variant | FACS-Seq fitted mean (log10) ((6R,S)-folinic acid [1]) | normalized RNA/DNA level without ligand (log10) ((6R,S)-folinic acid [2]) | FACS-Seq fitted mean (log10) ((6R,S)-folinic acid [3]) | normalized RNA/DNA level with ligand (log10) ((6R,S)-folinic acid [4])
25 | CAAGGG | -0.428 ± 0.17 | 1.88 ± 0.02 | -0.164 ± 0.057 | 1.99 ± 0.013
26 | CAAGGA | 0.62 ± 0.052 | 1.981 ± 0.019 | 0.722 ± 0.17 | 1.99 ± 0.052
27 | AAACAG | 0.346 ± 0.021 | 1.925 ± 0.0068 | 0.296 ± 0.11 | 1.99 ± 0.046
28 | AAACAU | 0.298 ± 0.095 | 1.971 ± 0.0055 | 0.199 ± 0.17 | 2.01 ± 0.045
29 | AAACAC | 0.222 ± 0.096 | 2.001 ± 0.01 | 0.0733 ± 0.14 | 2.01 ± 0.026
30 | AAACAA | 0.376 ± 0.066 | 1.971 ± 0.0088 | 0.436 ± 0.009 | 1.99 ± 0.022
31 | UAACAA | 0.381 ± 0.053 | 1.95 ± 0.02 | 0.18 ± 0.0065 | 2 ± 0.037
32 | UAACAG | 0.325 ± 0.2 | 1.829 ± 0.015 | 0.463 ± 0.16 | 1.952 ± 0.017
33 | UAACAC | 0.349 ± 0.11 | 2.008 ± 0.0029 | 0.223 ± 0.22 | 2.01 ± 0.046
34 | UACAAG | 0.55 ± 0.1 | 1.74 ± 0.032 | 0.813 ± 0.031 | 1.94 ± 0.032
35 | UACAAA | 0.165 ± 0.11 | 1.9485 ± 0.00073 | 0.179 ± 0.031 | 1.99 ± 0.019
36 | UACAAU | 0.467 ± 0.071 | 1.95 ± 0.02 | 0.559 ± 0.071 | 2 ± 0.026
37 | GAAUUG | 0.416 ± 0.035 | 1.928 ± 0.0066 | 0.46 ± 0.014 | 2 ± 0.066
38 | GAAUUA | 0.508 ± 0.088 | 2.0059 ± 0.0002 | 0.572 ± 0.15 | 2.03 ± 0.031
39 | CAAGUU | 0.055 ± 0.13 | 2 ± 0.021 | 0.00566 ± 0.18 | 2.03 ± 0.046
40 | CACAAA | 0.458 ± 0.03 | 1.981 ± 0.014 | 0.462 ± 0.16 | 1.99 ± 0.033
41 | GAAGAC | 0.635 ± 0.035 | 1.97 ± 0.0057 | 0.574 ± 0.24 | 2.03 ± 0.025
42 | GAAGAU | 0.124 ± 0.065 | 1.968 ± 0.0035 | 0.379 ± 0.13 | 2.03 ± 0.032
43 | GAAGAA | -0.708 ± 0.014 | 1.973 ± 0.0039 | -0.827 ± 0.004 | 2.03 ± 0.04
44 | GAAGAG | 0.0515 ± 0.088 | 1.837 ± 0.0055 | 0.356 ± 0.15 | 2.03 ± 0.034
45 | UACAUA | 0.329 ± 0.1 | 1.959 ± 0.012 | 0.058 ± 0.017 | 2.002 ± 0.0044
46 | UACAUG | 0.195 ± 0.2 | 1.76 ± 0.0019 | 0.236 ± 0.015 | 1.97 ± 0.019
47 | UAAUUG | 0.377 ± 0.016 | 1.794 ± 0.0071 | 0.456 ± 0.012 | 1.972 ± 0.017
48 | AAACUG | 0.318 ± 0.15 | 1.933 ± 0.0021 | 0.151 ± 0.091 | 2 ± 0.037

Row | Variant | FACS-Seq fitted mean (log10) ((6R,S)-folinic acid [1]) | normalized RNA/DNA level without ligand (log10) ((6R,S)-folinic acid [2]) | FACS-Seq fitted mean (log10) ((6R,S)-folinic acid [3]) | normalized RNA/DNA level with ligand (log10) ((6R,S)-folinic acid [4])
49 | UAACCA | 0.441 ± 0.11 | 2.007 ± 0.0037 | 0.274 ± 0.073 | 1.98 ± 0.0045
50 | UAACCG | 0.215 ± 0.047 | 1.8952 ± 0.00059 | 0.522 ± 0.21 | 2.01 ± 0.028
51 | AAAGUG | -0.0552 ± 0.019 | 1.675 ± 0.0049 | 0.25 ± 0.14 | 1.95 ± 0.031
52 | AAAGUC | 0.0964 ± 0.057 | 2.066 ± 0.014 | 0.235 ± 0.08 | 2.03 ± 0.047
53 | UAAUGA | 0.29 ± 0.014 | 1.872 ± 0.006 | 0.227 ± 0.042 | 2 ± 0.022
54 | UAAUGC | 0.147 ± 0.059 | 1.946 ± 0.017 | 0.234 ± 0.13 | 1.98 ± 0.032
55 | UAAUGG | 0.152 ± 0.043 | 1.601 ± 0.011 | 0.399 ± 0.18 | 1.923 ± 0.0091
56 | UAAUGU | 0.615 ± 0.038 | 1.896 ± 0.0068 | 0.695 ± 0.092 | 2 ± 0.055
57 | AAAAGG | 0.512 ± 0.12 | 1.875 ± 0.005 | 0.459 ± 0.17 | 1.98 ± 0.038
58 | AAAAGC | 0.477 ± 0.09 | 1.999 ± 0.011 | 0.358 ± 0.1 | 2.03 ± 0.042
59 | AACCAA | 0.377 ± 0.016 | 1.989 ± 0.0067 | 0.433 ± 0.11 | 2 ± 0.028
60 | GAAGUG | 0.327 ± 0.098 | 1.8629 ± 0.0002 | 0.369 ± 0.033 | 1.99 ± 0.026
61 | GAAGUA | 0.299 ± 0.013 | 1.966 ± 0.0082 | 0.331 ± 0.045 | 2.014 ± 0.019
62 | GAAGUU | 0.522 ± 0.18 | 2.007 ± 0.0088 | 0.481 ± 0.2 | 2.04 ± 0.03
63 | AAAGAU | 0.433 ± 0.025 | 1.9288 ± 0.0013 | 0.44 ± 0.027 | 2 ± 0.032
64 | AAAGAC | 0.42 ± 0.029 | 1.98 ± 0.0069 | 0.38 ± 0.23 | 2.01 ± 0.028
65 | AAAGAA | 0.282 ± 0.14 | 1.923 ± 0.011 | 0.569 ± 0.098 | 1.99 ± 0.037
66 | AAAGAG | 0.224 ± 0.031 | 1.617 ± 0.0032 | 0.316 ± 0.22 | 1.93 ± 0.049
67 | AAAUAG | -0.0965 ± 0.1 | 1.903 ± 0.006 | -0.332 ± 0.53 | 1.98 ± 0.022
68 | AAAUAC | 0.31 ± 0.028 | 1.988 ± 0.0076 | 0.0315 ± 0.22 | 2 ± 0.03
69 | AAAUAU | 0.147 ± 0.058 | 1.949 ± 0.002 | 0.275 ± 0.077 | 2 ± 0.039
70 | AAAUAA | 0.0525 ± 0.017 | 1.94 ± 0.023 | 0.383 ± 0.051 | 1.98 ± 0.038
71 | GAACAA | 0.694 ± 0.2 | 1.976 ± 0.013 | 0.571 ± 0.25 | 2 ± 0.033
